Broadly, the Kd is the constant that tells how readily two partners part at equilibrium.

These results are taken from patent publication US7153654.

For this experiment, the target named is anti-hCG monoclonal antibody from Organon Teknika. Description: competition: hCG displaces FpepT (5.5×10^-8 M) from anti-hCG Mab (4.5×10^-8 M), fluorescence EX=561 nm EM=590 nm; K1 of the fit.

As to “human chorionic gonadotrophin (hCG) (from UniProt P01215 25-116; P0DN86 21-165) (ligand)”, the Kd came out at 490 pM.
